In paper doi:10.1101/2025.11.04.686334 (2025):

Tests used:
Assay in all cases: BLI
[1] = target: HA220-M4T
[2] = target: HA220-4
[3] = target: HA220-1 (human, UniProt Q9NZ52 16-146)

B1: D2 H1-1/H3-1 mAb (antibody, V domains shown)
VH: QVQLVQSGGGLVRPGGSLRLSCAASGFTFSSAWMTWVRQAPGKGLEWVANIKEDGSEKYYVDSVKGRFSISRDNAKNSLYLQISSLRAEDTAVYYCARRFVERLWGQSKPYDAVDIWGQGTMVTVSG
VL: DIQMTQSPSSLSASVGDRVTITCRASQSISNYLNWYQQKPGKAPKLLIYVASNLQSGVPSRFSGSGSGTDFALTISSLQPEDFASYYCQQSYSPVTTFGGGTKVEIK
For B1, which Kd [1] is on record?
The Kd was 2.55 nM.

And the koff [1]?
Its koff is 0.00017 s⁻¹.

And the Kd [2]?
The Kd was 65 nM.

B2: FluA-20 mAb (antibody, V domains shown)
VH: QVQLEESGPGLVKPSETLSLTCSVSGVSVTSDIYYWTWIRQPPGKGLEWIGYIFYNGDTNYNPSLKSRVTMSIDTSKNEFSLRLTSVTAADTAVYFCARGTEDLGYCSSGSCPNHWGQGTLVTVSS
VL: DIVMTQSPSSLSASIGDRVTITCRPSQNIRSFLNWFQHKPGKAPKLLIYAASNLQSGVPSRFSGSGSGTEFTLTIRSLQPEDFATYYCQQSYNTPPTFGQGTKVEIK
B2 was tested. Which Kd [1] did it give?
The Kd was 0.253 nM.

And the Kd [3]?
Its Kd is > 12000 nM.

And the Kd [2]?
Its Kd is 110 nM.

B3: S1V2-58 mAb (antibody, V domains shown)
VH: QVQLQESGPGLVKPSETLSLTCTVSGGSLSIYYWSWVRQSPGKGLEWIGYISNSGSPTYHPSLKSRVTISLDTSKSQFSLKLTSVTAADTALYFCARGVLEQLAPDFDSYYYGMNVWGQGTTVTVSG
VL: DIQMTQSPSSVSASLGDRVTLTCRASQPIRSYLNWYQHKPGLAPKLLVYAVSNLQSGVPSRFSGSGSGTDFTLTVSSLQPEDFATYYCQQSYSTPYTFGQGTRLEIK
For B3, which Kd [1] is on record?
The Kd was 10.7 nM.

And the koff [1]?
Its koff is 0.00043 s⁻¹.

What about the Kd [2] of the same binder?
The Kd was 178 nM.
